From US20190055314A1 (ADAGENE, published 2019) come the findings set out here.

For experiment [1], the target named is T1, CD137-hisFc fusion protein (Sino Biological Cat 10041-H03H) (human, UniProt Q07011 24-186).
T1 construct: Bought; also called recombinant human CD137 (fused with human Fc and His tag); not shown: His tag and human Fc
The experiment can be described thus: BLI Octet, Fab. Background: In BLI a coated tip is dipped into the sample, and binding shifts an interference pattern.

For experiment [2], the target named is T1, CD137-hisFc fusion protein (Sino …). Nature of the experiment: BLI Octet, Fab. The source holds these as a separate data set.

Where two headings read alike, the source gives them in different places.

B1: Fab 4217 (Fab, V domains shown)
VH: EVQLVESGGGLVQPGGSLRLSCAASGYSISSGYYWDWIRQAPGKGLEWVSSISGDGDTTYYADSVKGRFTISRDNSKNTLYLQLNSLRAEDTAVYYCAREYYGYGYALDYWGQGTLVTVSS
VL: DIQLTQSPSSLSASVGDRVTITCRASQGISSYLAWYQQKPGKAPKLLIYDASSLESGVPSRFSGSGSGTDFTLTISSLQPEDFATYYCQQYYSTPLTFGQGTKVEIKR
notes: Fab from E. coli; also called VH10/VL10
By Kd is commonly meant a measure of binding affinity in units of concentration. The koff is the first-order rate constant of dissociation. Read a low koff as a long-lived complex. A word on the kon: it is a measure of how fast the partners come together. High values mean fast association, low ones slow association. B1: in experiment [1], the Kd was found to be 96.7 nM, the koff is 0.0545 s⁻¹ and the kon worked out at 564000 M⁻¹ s⁻¹. Moreover, in experiment [2], the Kd was 97 nM, the koff was 0.055 s⁻¹ and the kon is 560000 M⁻¹ s⁻¹.

B2: Fab 5359 (Fab, V domains shown)
VH: EVQLVESGGGLVQPGGSLRLSCAASGFSLSTSGVGVGWIRQAPGKGLEWLALIDWADDKYYSPSLKSRLTISRDNSKNTLYLQLNSLRAEDTAVYYCARGGSDAVLGDWFAYWGQGTLVTVSS
VL: DIQLTQSPSSLSASVGDRVTITCRASQGIGSYLAWYQQKPGKAPKLLIYDASNLETGVPSRFSGSGSGTDFTLTISSLQPEDFATYYCQQGYSIWTFGQGTKVEIKR
notes: Fab from E. coli; also called VH27/VL27
As for B2, in experiment [1], binding was put at a Kd of 0.71 nM, the koff was 0.00033 s⁻¹ and the kon was 464000 M⁻¹ s⁻¹. Besides, in experiment [2], the affinity, expressed as Kd, was 0.71 nM; the koff was 0.00033 s⁻¹; the kon came out at 460000 M⁻¹ s⁻¹.

B3: Fab 5316 (Fab, V domains shown)
VH: EVQLVESGGGLVQPGGSLRLSCAASGYSISSGYHWAWIRQAPGKGLEWVSSISGDGSSTYYADSVKGRFTISRDNSKNTLYLQLNSLRAEDTAVYYCAREGSDAVTGDWFAYWGQGTLVTVSS
VL: DIQLTQSPSSLSASVGDRVTITCRASQGVGTYLAWYQQKPGKAPKLLIYDASSLESGVPSRFSGSGSGTDFTLTISSLQPEDFATYYCQQGYSLWTFGQGTKVEIKR
notes: Fab from E. coli; also called VH17/VL17
In experiment [1], B3 showed a Kd of 11.4 nM, a koff of 0.00161 s⁻¹ and a kon of 141000 M⁻¹ s⁻¹. In experiment [2], this molecule yielded a Kd of 11 nM, a koff of 0.0016 s⁻¹ and a kon of 140000 M⁻¹ s⁻¹.

B4: Fab 5300 (Fab, V domains shown)
VH: EVQLVESGGGLVQPGGSLRLSCAASGYTFSNYWIHWVRQAPGKGLEWVSYISGDGDTTYYADSVKGRFTISRDNSKNTLYLQLNSLRAEDTAVYYCAREGSTTVAGDWFAYWGQGTLVTVSS
VL: DIQLTQSPSSLSASVGDRVTITCRASQGIGSFLGWYQQKPGKAPKLLIYDASSLESGVPSRFSGSGSGTDFTLTISSLQPEDFATYYCQQYYSLVTFGQGTKVEIKR
notes: Fab from E. coli; also called VH12/VL12
In experiment [1], B4 showed a Kd of 15.3 nM, a koff of 0.0091 s⁻¹ and a kon of 596000 M⁻¹ s⁻¹. In experiment [2], this molecule registered a Kd of 15 nM, a koff of 0.0091 s⁻¹ and a kon of 600000 M⁻¹ s⁻¹.

B5: Fab 5367 (Fab, V domains shown)
VH: EVQLVESGGGLVQPGGSLRLSCAASGFSLSTSGVGVGWIRQAPGKGLEWVSGISGAGDSTYYADSVKGRFTISRDNSKNTLYLQLNSLRAEDTAVYYCAREGSDTVLGDWFAYWGQGTLVTVSS
VL: DIQLTQSPSSLSASVGDRVTITCRASQDIRSYLAWYQQKPGKAPKLLIYDASNRATGIPSRFSGSGSGTDFTLTISSLQPEDFATYYCQQGYSIWTFGQGTKVEIKR
notes: Fab from E. coli; also called VH31/VL31
Take B5: in experiment [1], the Kd was 14.9 nM, the koff was 0.00608 s⁻¹ and the kon turned out to be 407000 M⁻¹ s⁻¹. In experiment [2], this molecule had a Kd of 15 nM, a koff of 0.0061 s⁻¹ and a kon of 410000 M⁻¹ s⁻¹.

B6: Fab 4074 (Fab, V domains shown)
VH: EVQLVESGGGLVQPGGSLRLSCAASGFSLSTGGVGVSWIRQAPGKGLEWVSSISGSGGTTYYADSVKGRFTISRDNSKNTLYLQLNSLRAEDTAVYYCARDDLYSWYFDVWGQGTLVTVSS
VL: DIQLTQSPSSLSASVGDRVTITCRASQGIGSSLAWYQQKPGKAPKLLIYAASSLQSGVPSRFSGSGSGTDFTLTISSLQPEDFATYYCQQGYYTWTFGQGTKVEIKR
notes: Fab from E. coli
In experiment [1], B6 gave a Kd of 19.5 nM, a koff of 0.000937 s⁻¹ and a kon of 48000 M⁻¹ s⁻¹. Also, in experiment [2], the affinity, expressed as Kd, was 20 nM; the koff amounted to 0.00094 s⁻¹; the kon stood at 48000 M⁻¹ s⁻¹.

B7: Fab 5323 (Fab, V domains shown)
VH: EVQLVESGGGLVQPGGSLRLSCAASGFSLSTSGVGVGWIRQAPGKGLEWIGEIYHSGSTYYSPSLKSRVTISRDNSKNTLYLQLNSLKAEDTAVYYCAREGSDVVTGDWFAYWGQGTLVTVSS
VL: DIQLTQSPSSLSASVGDRVTITCRASQGISSVLAWYQQKPGKAPKLLIYDASSLESGVPSRFSGSGSGTDFTLTISSLQPEDFATYYCQQGYSLWTFGQGTKVEIKR
notes: Fab from E. coli; also called VH19/VL19
For B7, in experiment [1], binding was put at a Kd of 10.4 nM, the dissociation rate constant (koff) amounted to 0.00812 s⁻¹ and the kon was 782000 M⁻¹ s⁻¹. In addition, in experiment [2], the Kd stood at 10 nM, the koff worked out at 0.0081 s⁻¹ and the kon is 780000 M⁻¹ s⁻¹.

B8: Fab 5310 (Fab, V domains shown)
VH: EVQLVESGGGLVQPGGSLRLSCAASGFSLSTSGVGVGWIRQAPGKGLEWLALIDWDDDKYYSPSLKSRLTISRDNSKNTLYLQLNSLRAEDTAVYYCARGGSDTVLGDWFAYWGQGTLVTVSS
VL: DIQLTQSPSSLSASVGDRVTITCRASQSVSPYLAWYQQKPGKAPKLLIYDASSLESGVPSRFSGSGSGTDFTLTISSLQPEDFATYYCQQGYSLWTFGQGTKVEIKR
notes: Fab from E. coli; also called VH15/VL15
In experiment [1], B8 gave a Kd of 5.72 nM, a koff of 0.00465 s⁻¹ and a kon of 813000 M⁻¹ s⁻¹. In experiment [2], this molecule gave a Kd of 5.7 nM, a koff of 0.0047 s⁻¹ and a kon of 810000 M⁻¹ s⁻¹.

B9: Fab 5303 (Fab, V domains shown)
VH: EVQLVESGGGLVQPGGSLRLSCAASGFSLSTSGVAVGWIRQAPGKGLEWLALIDWADDKYYSPSLKSRLTISRDNSKNTLYLQLNSLRAEDTAVYYCAREGSDAVLGDWFAYWGQGTLVTVSS
VL: DIQLTQSPSSLSASVGDRVTITCRASQDISTFLAWYQQKPGKAPKLLIYDASSLESGVPSRFSGSGSGTDFTLTISSLQPEDFATYYCQQAYSIWTFGQGTKVEIKR
notes: Fab from E. coli; also called VH14/VL14
On to B9, for which, in experiment [1], the Kd stood at 5.12 nM, the koff came out at 0.00509 s⁻¹ and the kon was determined as 995000 M⁻¹ s⁻¹. In experiment [2], this molecule had a Kd of 5.1 nM, a koff of 0.0051 s⁻¹ and a kon of 1e+06 M⁻¹ s⁻¹.

B10: Fab 5365 (Fab, V domains shown)
VH: EVQLVESGGGLVQPGGSLRLSCAASGFSLSTGGVGVGWIRQAPGKGLEWLALIDWADDKYYSPSLKSRLTISRDNSKNTLYLQLNSLRAEDTAVYYCARGGSDTVIGDWFAYWGQGTLVTVSS
VL: DIQLTQSPSSLSASVGDRVTITCRASQSIGSYLAWYQQKPGKAPKLLIYDASNLETGVPSRFSGSGSGTDFTLTISSLQPEDFATYYCQQGYYLWTFGQGTKVEIKR
notes: Fab from E. coli; also called VH30/VL30
In experiment [1], B10 yielded a Kd of 2.56 nM, a koff of 0.00179 s⁻¹ and a kon of 701000 M⁻¹ s⁻¹. Also, in experiment [2], the Kd came out at 2.6 nM, the koff is 0.0018 s⁻¹ and the kon amounted to 700000 M⁻¹ s⁻¹.

B11: Fab 5299 (Fab, V domains shown)
VH: EVQLVESGGGLVQPGGSLRLSCAASGYSISSGHYWGWIRQAPGKGLEWLALIDWYGDKYYSTSLKSRLTISRDNSKNTLYLQLNSLRAEDTAVYYCARSDYYGSHFDYWGQGTLVTVSS
VL: DIQLTQSPSSLSASVGDRVTITCRASESVDFDGFSFLAWYQQKPGKAPKLLIYDASNLETGVPSRFSGSGSGTDFTLTISSLQPEDFATYYCQQYDTLPRTFGQGTKVEIKR
notes: Fab from E. coli; also called VH11/VL11
As for B11, in experiment [1], binding was put at a Kd of 13.7 nM, the koff is 0.0076 s⁻¹ and the kon was 555000 M⁻¹ s⁻¹. In experiment [2], this molecule showed a Kd of 14 nM, a koff of 0.0076 s⁻¹ and a kon of 560000 M⁻¹ s⁻¹.
